Data from US20130095071A1, “METHOD OF TREATING OR PREVENTING HEARING LOSS” (Audigen Inc., priority 2009, published 2013).

Tests used:
[1] = SEM/TEM examination of round window membrane after enzyme digestion
Protocol: Under appropriate anesthesia, the round window of the guinea pig was surgically exposed and inspected visually under a surgical microscope. Freshly prepared collagenase solution of 2-3 ul was applied to the round window niche with the help of a microinjection pump. The reaction time was 10 minutes. The residual solution was then sucked out and the RWM was washed with saline. The collagenase was used at a concentration of between 50 unit/ml to 200 unit/ml. In one example, the concentration used was 150 unit/ml. In the example provided here, the collagenase was collagenase from Clostridium histolyticum, Type II (available from Sigma).
To evaluate the damage of the digesting solution on RWW, the animal was killed immediately after the digestion and the cochleae were taken out and fixed with standard protocol for electronic microscopy. To evaluate if the damaged RWM heals spontaneously, some other animals were allowed to survive for 3 weeks before the RWMs were taken for examination.
Under deep anesthesia with an overdose of pentobarbital (100 mg/kg), the animal was decapitated and the temporal bone was rapidly removed and the cochlea extracted. To examine the RWM, the cochlea was immersed into a fixative of 2.5% glutaraldehyde overnight at 4° C., and post fixed in 2% OsO4 for 2 hours. […]

cochlear hair cells = test: Enzyme facilitated cochlear gene transfection with AAV through round window membrane; format: in vivo, guinea pig; conditions: after digestion of RWM
Protocol: (§1) The reaction time was 10 minutes.
For inner ear gene transfection, a piece of gelfoam (1-2 mm^3) was placed gently on RWM. 5 ul AAV solution was applied to the gelfoam. The cochlea was taken out for cochlea immunostaining against GFP 2-4 weeks after the surgical application of AAV vectors.
The transfection is through intact round window membrane (RWM). Under appropriate anesthesia, a cut of 2 cm is made posterior to the earlap and the soft tissue is distracted to expose the mastoid. The round window of the guinea pig is exposed by drilling a small hole of 2-3 mm in diameter on the mastoid. Solution of collagenase II is freshly prepared at concentration of 150 units/ml. With the help of a microinjection pump, a total of 10 μl enzyme solution is applied to the round window niche at a flow rate of 10 nl/sec. After reaction time of 10 minutes, residual enzyme solution is sucked out first using suction pump and then use gelfoam. […] Hearing status is evaluated using audiotory brainstem response (ABR).
The transfection is evaluated 2 weeks after the surgery. […] GFP positive hair cells are counted along the length of the cochlear duct. […]
A post-auricular approach was used to expose the tympanic bony bulla. […] The duration for the digestive treatment varied from 5 to 10 minutes and the quantity of the digestive solution 5 to 10 μl. […]

[2] = Safety of enzyme digestion of RWM: ABR before and after surgery; format: in vivo, guinea pig; conditions: 12 ears, 2-4 weeks after surgery
Protocol: as §1
ABR was tested in animals underwent gene transfection before and just before the animal was killed for morphology.
The transfection is through intact round window membrane (RWM). Under appropriate anesthesia, a cut of 2 cm is made posterior to the earlap and the soft tissue is distracted to expose the mastoid. The round window of the guinea pig is exposed by drilling a small hole of 2-3 mm in diameter on the mastoid. Solution of collagenase II is freshly prepared at concentration of 150 units/ml. With the help of a microinjection pump, a total of 10 μl enzyme solution is applied to the round window niche at a flow rate of 10 nl/sec. After reaction time of 10 minutes, residual enzyme solution is sucked out first using suction pump and then use gelfoam. A piece of gelfoam (2-3 mm^3) is placed upon RWM and then 5 μl AAV-GFP is applied to the gelfoam. The hole of mastoid is covered by suturing the soft tissue. Hearing status is evaluated using audiotory brainstem response (ABR).

Q: What does the source list for collagenase?
A: damage to RWM (SEM, TEM) ([1]; 3 weeks after the treatment): no difference from normal control; damage to RWM (SEM, TEM) ([1]; immediately after the treatment): causes damage to the epithelia facing middle ear; permeability of RWM to AAV (cochlear hair cells): makes RWM permeable to AAV; ABR threshold shift ([2]; 32, 48 kHz): less than 15 dB; hearing loss ([2]; other frequencies tested): no hearing loss
